As a reminder, the Kd is the free concentration of one partner at which half of the binding sites on the other are occupied at equilibrium, for simple one-to-one binding.

For the series, the target named is T1, CTCF (UniProt P49711 1-727).
T1 sequence: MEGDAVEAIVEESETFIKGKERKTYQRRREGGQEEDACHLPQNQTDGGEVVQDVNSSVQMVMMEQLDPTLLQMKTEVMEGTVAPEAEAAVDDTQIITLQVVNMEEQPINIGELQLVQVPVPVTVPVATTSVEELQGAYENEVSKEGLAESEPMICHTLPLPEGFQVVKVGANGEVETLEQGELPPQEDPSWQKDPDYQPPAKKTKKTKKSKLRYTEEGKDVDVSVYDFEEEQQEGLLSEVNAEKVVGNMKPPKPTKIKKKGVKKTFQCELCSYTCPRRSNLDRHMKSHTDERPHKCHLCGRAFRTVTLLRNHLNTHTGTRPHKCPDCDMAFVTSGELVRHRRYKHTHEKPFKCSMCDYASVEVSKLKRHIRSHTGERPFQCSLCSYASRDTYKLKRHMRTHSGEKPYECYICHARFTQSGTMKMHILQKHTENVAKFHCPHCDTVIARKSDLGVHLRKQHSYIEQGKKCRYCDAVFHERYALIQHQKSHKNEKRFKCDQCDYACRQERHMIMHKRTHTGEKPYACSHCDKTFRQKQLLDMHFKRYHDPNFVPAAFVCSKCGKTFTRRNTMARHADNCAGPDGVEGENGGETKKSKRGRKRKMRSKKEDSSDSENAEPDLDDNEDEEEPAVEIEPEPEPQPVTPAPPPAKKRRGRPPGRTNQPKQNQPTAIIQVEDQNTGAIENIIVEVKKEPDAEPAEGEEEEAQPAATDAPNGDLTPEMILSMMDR
Kind of series: MST; sonicated salmon sperm DNA competitor (2000 ng); MST: 125 nM DNA, 0-12.5 uM protein, 1X EMSA buffer (from 4X: 100 mM KCl, 20 mM HEPES pH 8.0, 0.2 mM EDTA, 20% glycerol) with 1 mM DTT (fresh), salmon sperm DNA; 60 min on ice. The note with it: protein: recombinant; tags: His; label: 5' FAM (5-carboxyfluorescein) on forward strand; blunt. (In EMSA bound probe runs differently from free probe, usually more slowly.)

B1: Wt S13 49-mer (dsDNA)
DNA 1: TTTGTTAATCTTTAGTGGGAACTAGTGGGAGTGCTGTGCCTCGGGTACC
DNA 2: GGTACCCGAGGCACAGCACTCCCACTAGTTCCCACTAAAGATTAACAAA
On to B1, for which the Kd came to 4.8 ± 2.3 µM.

For the origin of these results see article PMC9876287, “Characterization of a new CCCTC-binding factor binding site as a dual regulator of Epstein-Barr virus latent infection”.
